Test [1] deals with T1, human mesothelin recombinant protein (human, UniProt Q13421 296-580, limits assumed).
T1 construct: also called mesothelin protein; MSLN
Description: ELISA, plate coated with mesothelin 1 ug/mL, detection with anti-human kappa light chain antibody. The method, then: (§1) 100 μL of mesothelin in a coating buffer at a concentration of 1 μg/mL was added to and coated on each well of a plate. The plates were sealed and incubated at 4° C. overnight. The wells were aspirated and washed with 300 μL of PBST (0.05% Tween 20) for 3 times. The wells were blocked by adding 200 μL of PBS-5% skim milk and incubated at 37° C. for 1 hour. The wells were aspirated and washed with 300 μL/well of PBST (0.05% Tween 20) for 3 times. 100 μL of 400 ng ADC sample diluted with PBS was added to each well, and the plates were then incubated at 37° C. for 1 hour. The wells were aspirated and washed with 300 μL of PBST (0.05% Tween 20) for 3 times. 50 μl of anti-human Kappa light chains (1:5000) was added to each well, and the plates were incubated at 37° C. for 1 hour. The wells were aspirated and washed with 300 μL/well of PBST (0.05% Tween 20) for 3 times. 100 μl of TMB was added to each well, and the plates were incubated at room temperature for 15 minutes. The color development was stopped by adding 100 μL of 1N HCl.
Background: ELISA stands for enzyme-linked immunosorbent assay.

Test [2] addresses T1, human mesothelin recombinant protein. Description: ELISA, plate coated with mesothelin at 1 ug/mL, detection with anti-human Kappa light chains. The method, then: as §1
For test [3] the target is unchanged. The test is described as follows: ELISA, plate coated with mesothelin protein, serial dilutions of antibody, non-linear regression. The method, then:
(§2) ELISA plates were coated with 1˜2 μg/100 μl per well of mesothelin protein. Wells were rinsed for 3 times with PBS and blocked with 300 μl 5% MPBS per well for 2 hr at 37° C. After washing with PBS, wells were incubated with serial diluted mesothelin antibodies in 5% MPBS for 1.5 hours at 37° C. The plates were washed and goat polyclonal anti-human IgG-HRP antibody (1:10,000) (Jackson ImmunoResearch) was added into each well. The absorbance was measured as described above and the binding affinities of antibodies were calculated by non-linear regression with Prism software (GraphPad).

Test [4] shares this target. The test is described as follows: ELISA, plate coated with mesothelin protein, serial dilutions of antibody, detection with anti-human IgG-HRP. The method, then:
as §2

Test [5] has the same target. The test is described as follows: SPR, Biacore T100, antibody captured on anti-human IgG-Fc CM5 chip, human mesothelin recombinant protein as analyte (3.7 to 100 nM), 1:1 Langmuir model. On the procedure: (§3) The kinetic constant of the anti-mesothelin ADCs interaction against mesothelin was determined by surface plasma resonance (Biacore® T100, Biacore, Inc., Piscataway, N.J.). The flow cell of the CM5 wafer was fixed with approximately 10,000 reaction units (RU) of anti-human IgG-Fc (Biacore®) in 10 mM glycine pH 5.0 at 10 μL/min for 600 seconds. 10 μg/mL of anti-mesothelin antibody and anti-mesothelin ADCs diluted in TBS at 10 μl/min were captured on CM5 chips. Four concentrations (from 3.7 to 100 nM) of human mesothelin recombinant protein and zero concentration (flow buffer) in 100 μl/min binding were recorded in PBS containing 1 mM CaCl₂ for 3 minutes. The dissociation of the complex was measured for 10 minutes. The water surface was regenerated by injecting 3 M MgCl₂ and 3 mM EGTA at 10 μl/min for 60 seconds. The curve obtained after subtracting the reference and buffer signals was taken into the 1:1 Langmuir binding model using the Biacore® T100 evaluation software (Biacore®).

Test [6] has the same target. The test is described as follows: SPR, BIAcore T200, mesothelin coupled to CM5 chip, antibody injected (0.3125 nM to 40 nM), 25 degree C, 1:1 Langmuir model. The method, then: Carboxymethylated dextran biosensor chips (CM5, Cytiva Inc.) were activated with N-ethyl-N′-(3-dimethylaminopropyl)-carbodiimide hydrochloride (EDC) and N-hydroxysuccinimide (NHS) according to the supplier's instructions. Mesothelin protein was diluted with 10 mM sodium acetate, pH 4.0, into 5 μg/ml before injection at a flow rate of 10 μL/minute to achieve approximately 1500 response units (RU) of coupled protein followed by the injection of 1M ethanolamine to block unreacted groups. For kinetics measurements, two-fold serial dilutions of anti-mesothelin mAb (0.3125 nM to 40 nM) were injected in HBS-EP+ Biacore running buffer provided by the manufacturer (Cytiva Inc.) at 25 degree C. at a flow rate of 30 μL/min, and binding responses on the mesothelin protein were corrected by subtraction of responses on a blank flow cell. Association rates (kon or ka) and dissociation rates (koff or kd) were calculated using a simple one-to-one Langmuir binding model with separate fittings of kon and koff was used. (Cytiva.™. Biacore Insight Evaluation Software).
For orientation: SPR reads the build-up and loss of mass on a sensor chip optically.

Test [7] shares this target. The test is described as follows: SPR, Biacore T100, ADC captured on anti-human IgG-Fc CM5 chip, human mesothelin recombinant protein as analyte (3.7 to 100 nM), 1:1 Langmuir model. On the procedure:
as §3

T1 sequence (Q13421 other isoform, or with tags, fused parts or gaps limits assumed): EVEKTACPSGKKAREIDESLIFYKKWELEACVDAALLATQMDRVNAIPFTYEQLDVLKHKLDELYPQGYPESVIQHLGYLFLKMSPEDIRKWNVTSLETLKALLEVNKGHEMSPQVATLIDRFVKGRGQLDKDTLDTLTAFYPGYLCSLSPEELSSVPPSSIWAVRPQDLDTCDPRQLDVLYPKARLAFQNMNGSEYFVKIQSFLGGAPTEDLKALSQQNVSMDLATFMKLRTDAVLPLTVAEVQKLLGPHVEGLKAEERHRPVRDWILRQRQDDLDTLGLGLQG

B1: DCBPR2002-2(DBCO-vc-seco-DUBA)-2(DBCO-s-DM1) (other)
VH: QVQLVQSGAEVKKPGASVKVSCKASGYSFTGYTMNWVRQAPGQGLEWMGLITPYNGASSYNQKFRGRVTMTRDTSISTAYMELSRLRSDDTAVYYCARGGYDGRGFDYWGQGTLVTVSS
VL: EIVLTQSPATLSLSPGERATLSCSASSSVSYMHWYQQKPGQAPRLLIYDTSKLASGIPARFSGSGSGTDFTLTISSLEPEDFAVYYCQQWSKHPLTFGQGTKVEIKR
modifications: DBCO-vc-seco DUBA (2 per antibody) and DBCO-S-DM1 (2 per antibody) linked through GlcNAz to the tri-mannosyl N-glycan of the heavy chain constant region (DAR ~4)
For B1, in test [1], the EC50 (read off the curve) – broadly, the concentration at which the effect is half-maximal – was around 0.07 nM. Further, the Kd (usually a measure of binding affinity in units of concentration) in test [2] amounted to 0.0732 nM.

B2: DCBPR2002-4(DBCO-s-DM1) (other)
VH: B1 VH
VL: B1 VL
modifications: DBCO-S-DM1 linked through GlcNAz to the tri-mannosyl N-glycan of the heavy chain constant region; 4 per antibody (DAR ~4)
Take B2: the Kd in test [2] amounted to 0.145 nM.

B3: DCBPR2002-2(DBCO-vc-MMAE)-2(DBCO-s-DM1) (other)
VH: B1 VH
VL: B1 VL
modifications: DBCO-vc-MMAE (2 per antibody) and DBCO-S-DM1 (2 per antibody) linked through GlcNAz to the tri-mannosyl N-glycan of the heavy chain constant region (DAR ~4)
Turning to B3, in test [2], the Kd was determined as 0.136 nM.

B4: humanized antibody HuSS1 (DCBPR2002) (antibody, V domains shown)
VH: B1 VH
VL: B1 VL
notes: also called HuSS1-HH; HuSS1 (HH)
Regarding B4, the “EC50 (read off the curve)” value in test [1] was around 0.09 nM; in test [4] it was around 0.05 nM. The Kd in test [3] is 0.0499 nM; in test [5], 0.0169 nM; in test [2], 0.0924 nM; in test [6], 0.0025 nM. In addition, the koff (as a rule, a measure of how fast the partners let go of each other) in test [6] was determined as 1.12e-05 s⁻¹. For the same molecule, in test [6], the kon (in general, a measure of how fast the partners come together) stood at 4.49e+06 M⁻¹ s⁻¹.

B5: DCBPR2002-4(DBCO-vc-seco-DUBA) (other)
VH: B1 VH
VL: B1 VL
modifications: DBCO-vc-seco DUBA linked through GlcNAz to the tri-mannosyl N-glycan of the heavy chain constant region; 4 per antibody (DAR ~4)
On to B5, for which the Kd in test [2] stood at 0.0975 nM.

B6: DCBPR2002-4(DBCO-vc-MMAE) (other)
VH: B1 VH
VL: B1 VL
modifications: DBCO-vc-MMAE linked through GlcNAz to the tri-mannosyl N-glycan of the heavy chain constant region; 4 per antibody (DAR 3.89 by LC-MS)
B6: the results for the Kd in test [2] and in test [7] were 0.133 nM and 0.0217 nM, respectively.

B7: DCBPR2002-2(DBCO-vc-MMAE)-2(DBCO-vc-seco-DUBA) (other)
VH: B1 VH
VL: B1 VL
modifications: DBCO-vc-MMAE (2 per antibody) and DBCO-vc-seco DUBA (2 per antibody) linked through GlcNAz to the tri-mannosyl N-glycan of the heavy chain constant region (DAR ~4)
As to B7, the results for the Kd in test [2] and in test [7] were 0.158 nM and 0.0256 nM, respectively.

B8: humanized SS1 4D5 (HdSS1) (antibody, V domains shown)
VH: EVQLVESGGGLVQPGGSLRLSCAASGYSFTGYTMNWVRQAPGKGLEWVALITPYNGASSYNQKFRGRFTISRDDSKNTLYLQMNSLRAEDTAVYYCARGGYDGRGFDYWGQGTLVTVSS
VL: DIQMTQSPSSLSASVGDRVTITCSASSSVSYMHWYQQKPGKAPKLLIYDTSKLASGVPSRFSGSGSGTDFTLTISSLQPEDFATYYCQQWSKHPLTFGQGTKVEIKR
notes: also called HdSS1 HH; HdSS1 (HH)
As to B8, the Kd in test [3] stood at 26.1 nM.

Values taken from patent US20210386866A1 (DEVELOPMENT CENTER FOR BIOTECHNOLOGY, published 2021).
